# Experimental data: paper doi:10.1101/2021.03.03.433707 (bioRxiv, 2021)
# Residue numbers refer to the chain shown, from its start. Names may count otherwise.
# T1: MukB, full length, wild type (E. coli, UniProt P22523 1-1486)
# T1 sequence (looked up): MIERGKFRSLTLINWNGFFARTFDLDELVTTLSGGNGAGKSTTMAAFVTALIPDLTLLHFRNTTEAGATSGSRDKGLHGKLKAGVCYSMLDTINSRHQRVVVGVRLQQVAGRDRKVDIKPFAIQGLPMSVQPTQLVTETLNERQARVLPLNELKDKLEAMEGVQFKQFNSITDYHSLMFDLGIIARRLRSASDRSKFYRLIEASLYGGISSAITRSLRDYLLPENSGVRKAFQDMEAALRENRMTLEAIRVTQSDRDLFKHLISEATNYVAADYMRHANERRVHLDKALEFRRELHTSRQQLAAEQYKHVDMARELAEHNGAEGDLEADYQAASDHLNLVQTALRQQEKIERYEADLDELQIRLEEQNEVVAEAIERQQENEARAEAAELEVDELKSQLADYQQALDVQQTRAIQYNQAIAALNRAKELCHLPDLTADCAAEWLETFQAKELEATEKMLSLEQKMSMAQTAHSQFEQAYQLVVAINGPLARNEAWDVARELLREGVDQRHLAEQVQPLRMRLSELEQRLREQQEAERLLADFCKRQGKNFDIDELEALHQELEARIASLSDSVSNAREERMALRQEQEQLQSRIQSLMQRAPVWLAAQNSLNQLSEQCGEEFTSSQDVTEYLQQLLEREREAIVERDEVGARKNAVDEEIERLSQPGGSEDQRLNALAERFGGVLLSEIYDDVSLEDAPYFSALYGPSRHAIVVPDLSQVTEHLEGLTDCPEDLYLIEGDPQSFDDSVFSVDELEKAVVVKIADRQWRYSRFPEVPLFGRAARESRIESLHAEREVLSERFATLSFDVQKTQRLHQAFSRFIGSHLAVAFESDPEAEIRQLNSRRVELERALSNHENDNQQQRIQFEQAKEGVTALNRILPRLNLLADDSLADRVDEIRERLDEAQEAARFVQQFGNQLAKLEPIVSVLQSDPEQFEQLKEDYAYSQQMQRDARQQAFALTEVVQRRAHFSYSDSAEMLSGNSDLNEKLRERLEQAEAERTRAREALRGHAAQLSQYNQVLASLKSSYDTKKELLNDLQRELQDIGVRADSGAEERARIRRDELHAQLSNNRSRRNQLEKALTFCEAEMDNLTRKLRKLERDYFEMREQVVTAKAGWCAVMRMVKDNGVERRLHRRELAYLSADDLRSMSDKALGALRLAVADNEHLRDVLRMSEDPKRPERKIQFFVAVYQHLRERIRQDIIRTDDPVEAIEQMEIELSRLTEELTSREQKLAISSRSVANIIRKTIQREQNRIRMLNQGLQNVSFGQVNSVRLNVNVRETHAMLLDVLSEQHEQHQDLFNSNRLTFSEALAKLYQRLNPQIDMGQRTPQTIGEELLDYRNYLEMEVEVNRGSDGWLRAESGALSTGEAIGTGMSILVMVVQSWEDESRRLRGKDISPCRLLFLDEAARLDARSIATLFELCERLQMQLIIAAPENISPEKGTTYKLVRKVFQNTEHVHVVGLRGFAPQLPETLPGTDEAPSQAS
# B1: MatP^4A (K71A, Q72A, R75A and R77A) (domain or fragment, E. coli, UniProt P0A8N0 1-132, looked up)
# chain: MKYQQLENLESGWKWKYLVKKHREGELITRYIEASAAQEAVDVLLSLENEPVLVNGWIDKHMNPELVNRMAATIAAARKRHFNAEHQHTRKKSIDLEFIVWQRLAGLAQRRGKTLSETIVQLIEDAENKEKY
# B2: MatP^4E (K71E, Q72E, R75E and R77E) (domain or fragment, E. coli, UniProt P0A8N0 1-132, looked up)
# chain: B1 chain with A71E, A72E, A75E, A77E
# B3: MukB long hinge (LH, 568-863) (domain or fragment, E. coli, UniProt P22523 568-863, looked up)
# chain: SLSDSVSNAREERMALRQEQEQLQSRIQSLMQRAPVWLAAQNSLNQLSEQCGEEFTSSQDVTEYLQQLLEREREAIVERDEVGARKNAVDEEIERLSQPGGSEDQRLNALAERFGGVLLSEIYDDVSLEDAPYFSALYGPSRHAIVVPDLSQVTEHLEGLTDCPEDLYLIEGDPQSFDDSVFSVDELEKAVVVKIADRQWRYSRFPEVPLFGRAARESRIESLHAEREVLSERFATLSFDVQKTQRLHQAFSRFIGSHLAVAFESDPEAEIRQLNSRRVELERALSNHENDNQQQR
# B4: ParC, full length (enzyme, E. coli, UniProt P0AFI2 1-752, looked up)
# chain: MSDMAERLALHEFTENAYLNYSMYVIMDRALPFIGDGLKPVQRRIVYAMSELGLNASAKFKKSARTVGDVLGKYHPHGDSACYEAMVLMAQPFSYRYPLVDGQGNWGAPDDPKSFAAMRYTESRLSKYSELLLSELGQGTADWVPNFDGTLQEPKMLPARLPNILLNGTTGIAVGMATDIPPHNLREVAQAAIALIDQPKTTLDQLLDIVQGPDYPTEAEIITSRAEIRKIYENGRGSVRMRAVWKKEDGAVVISALPHQVSGARVLEQIAAQMRNKKLPMVDDLRDESDHENPTRLVIVPRSNRVDMDQVMNHLFATTDLEKSYRINLNMIGLDGRPAVKNLLEILSEWLVFRRDTVRRRLNYRLEKVLKRLHILEGLLVAFLNIDEVIEIIRNEDEPKPALMSRFGLTETQAEAILELKLRHLAKLEEMKIRGEQSELEKERDQLQGILASERKMNNLLKKELQADAQAYGDDRRSPLQEREEAKAMSEHDMLPSEPVTIVLSQMGWVRSAKGHDIDAPGLNYKAGDSFKAAVKGKSNQPVVFVDSTGRSYAIDPITLPSARGQGEPLTGKLTLPPGATVDHMLMESDDQKLLMASDAGYGFVCTFNDLVARNRAGKALITLPENAHVMPPVVIEDASDMLLAITQAGRMLMFPVSDLPQLSKGKGNKIINIPSAEAARGEDGLAQLYVLPPQSTLTIHVGKRKIKLRPEELQKVTGERGRRGTLMRGLQRIDRVEIDSPRRASSGDSEE
# B5: ParE-His (enzyme, E. coli, UniProt P20083 1-630, looked up)
# chain: MTQTYNADAIEVLTGLEPVRRRPGMYTDTTRPNHLGQEVIDNSVDEALAGHAKRVDVILHADQSLEVIDDGRGMPVDIHPEEGVPAVELILCRLHAGGKFSNKNYQFSGGLHGVGISVVNALSKRVEVNVRRDGQVYNIAFENGEKVQDLQVVGTCGKRNTGTSVHFWPDETFFDSPRFSVSRLTHVLKAKAVLCPGVEITFKDEINNTEQRWCYQDGLNDYLAEAVNGLPTLPEKPFIGNFAGDTEAVDWALLWLPEGGELLTESYVNLIPTMQGGTHVNGLRQGLLDAMREFCEYRNILPRGVKLSAEDIWDRCAYVLSVKMQDPQFAGQTKERLSSRQCAAFVSGVVKDAFILWLNQNVQAAELLAEMAISSAQRRMRAAKKVVRKKLTSGPALPGKLADCTAQDLNRTELFLVEGDSAGGSAKQARDREYQAIMPLKGKILNTWEVSSDEVLASQEVHDISVAIGIDPDSDDLSQLRYGKICILADADSDGLHIATLLCALFVKHFRALVKHGHVYVALPPLYRIDLGKEVYYALTEEEKEGVLEQLKRKKGKPNVQRFKGLGEMNPMQLRETTLDPNTRRLVQLTIDDEDDQRTDAMMDMLLAKKRSEDRRNWLQEKGDMAEIEV
# Legend:
# native MS = molecular target: the molecule itself; test: native MS
# ParC, full length [1] = molecular target: B4; test: native MS
# ParC, full length [2] = molecular target: B4; test: ITC
# [3] = molecular target: T1, MukB, full length, wild type; test: fluorescence correlation spectroscopy
# ParC, full length [4] = molecular target: B4; test: SEC
binder,measurement,setting,value
B1,stoichiometry N,native MS,2
B2,stoichiometry N,native MS,2
B3,stoichiometry N,"ParC, full length [1]",1 ParC dimer per LH dimer
same,stoichiometry N,native MS,2
same,Kd,"ParC, full length [2]",690 nM
same,dH,"ParC, full length [2]",-7.48 kcal/mol
same,stoichiometry N,"ParC, full length [2]",0.84
B4,fold decrease in MatP-Cy3B binding to MukB at a 10-fold excess of competitor,[3],3 fold
B5,binding result,"ParC, full length [4]",binds
